Laboratory results reported in patent publication US20250115664A1.

Legend:
[1] = biological target: mouse TIM3 on cells (transfected cells, activated mouse T cells) (mouse) (UniProt Q8VIM0); test: binding to activated mouse T cells
[2] = biological target: mouse TIM3 on cells (transfected cells, activated mouse T cells) (mouse) (UniProt Q8VIM0); test: binding to activated mouse T cells, against TIM3.18 on human TIM3
[3] = biological target: cynomolgus TIM3 on cells (transfected CHO cells, activated cyno T cells, cyno spleen) (cynomolgus); test: flow cytometry, cyno TIM3-transfected CHO cells (Geo-MFI); fit value of a flat negative-control curve, far beyond the tested range; unit from the axis label
cynomolgus TIM3 on cells (transfected CHO cells, activated cyno T cells, cyno spleen) (cynomolgus), sequence (chain, as listed by the source limits assumed): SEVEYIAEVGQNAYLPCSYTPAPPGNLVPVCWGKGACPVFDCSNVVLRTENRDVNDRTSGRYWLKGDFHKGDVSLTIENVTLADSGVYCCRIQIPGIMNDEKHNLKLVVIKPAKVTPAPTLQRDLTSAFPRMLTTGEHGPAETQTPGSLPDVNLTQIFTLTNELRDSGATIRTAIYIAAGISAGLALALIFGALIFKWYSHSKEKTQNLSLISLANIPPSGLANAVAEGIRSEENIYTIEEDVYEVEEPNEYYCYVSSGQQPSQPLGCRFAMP

[4] = biological target: human TIM3 on cells (transfected CHO cells, activated human T cells, Th1 cells, TILs) (human) (UniProt Q8TDQ0); test: flow cytometry, human TIM3-transfected CHO cells (Geo-MFI); fit value of a flat negative-control curve, far beyond the tested range; unit from the axis label

mouse TIM3 on cells (transfected cells, activated mouse T cells) (mouse), sequence (Q8VIM0 20-281): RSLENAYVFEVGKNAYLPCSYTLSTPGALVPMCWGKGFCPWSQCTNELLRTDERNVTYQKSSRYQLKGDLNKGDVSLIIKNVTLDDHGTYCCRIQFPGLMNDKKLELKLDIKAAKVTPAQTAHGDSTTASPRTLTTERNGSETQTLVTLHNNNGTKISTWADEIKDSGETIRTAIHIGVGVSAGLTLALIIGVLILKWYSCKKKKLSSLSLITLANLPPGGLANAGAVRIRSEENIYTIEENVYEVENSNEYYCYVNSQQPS

| EC50 [1] | fold weaker EC50 than TIM3.18 on human TIM3 [2] | EC50 [3] | EC50 [4] | Substance |
| --- | --- | --- | --- | --- |
| 1.7 nM | 17 fold |  |  | RMT3-23 rat anti-mouse TIM3 antibody |
|  |  | 75.7 mg/mL | 39.7 mg/mL | hIgG1 (antibody) |
|  |  | 44.5 mg/mL | 42.3 mg/mL | hIgG2 (antibody) |
|  |  | 54.1 mg/mL | 29.3 mg/mL | hIgG4 (antibody) |
